Here are results for 3 molecules from US20040138156A1, “Therapeutic regulation of deoxyribonuclease-1-like-3 activity” (priority 2002, published 2004).

One test relates to D1L3. Conditions: cited from earlier work.
The subject of a further test is free DNA. The test is described as follows: Radial diffusion assay (RDA) of nuclease activity against free DNA in conditioned media. The format is biochemical. Conditions: media conditioned by transfected HeLa cells; 24 hours, 37 degrees. The protocol: (§1) Transfection Reagents and Resistance Assays. Lipofection of respective pcDNA3.1-D1 or -D3 ([…] purified with Promega Wizard Plus DNA system) was performed independently into 1-2 million HeLa cells, which produce a low background of secreted nuclease activity, when grown in DMEM with 10% FCS (LifeTech) in 6 well culture plates (Becton-Dickinson). […] Media of the transfected cells were conditioned for 36-48 hours and served as source of the respective enzymes. Nuclease activity in conditioned supernatant was measured by RDAs, zymograms and by testing activity against supercoiled pBluescript (Stratagene).
Nuclease Assays. Nuclease activity against “naked” or free DNA in CM was quantified by densitometry of RDAs. For assays of media by murine cells, RDAs were performed using conditioned media, after 36 hour incubation of equal numbers of target cell population. Each conditioned media was sampled in triplicate. RDAs for all four mice were performed on a single dish. For RDAs, 2-5 ul of conditioned supernatant was dotted on 100 mm dishes containing 2% agarose, 250 ug/ml DNA, 0.001% EtBr, 0.5% filtered milk, 10 mM Ca^+2/MgCl2; and 12.5 ug/ml kanamycin. Multiple observations were generated for every sample obtained. After 24 hours of 37° incubation, plates are photographed under UV transillumination; and scanned photos were analyzed with NIH image. For RDAs, the activity was quantified as the product of mean density and area (traced on image) of zones of clearing. For observations of serum/urine, 2-5 ul of serum were dotted on agarose plates.
Zymograms are in-gel renaturation assays performed by SDS-PAGE through a gel impregnated with 200 µg/ml DNA and ethidium bromide, eluting away SDS with repeated washes in 25 mM Tris-HCl pH 7.5, then incubating for 12-16 hours at 37° C. in 25 mM Tris-HCl pH 7.5 with 10 mM Ca^+2/Mg^+2 buffer. Activity is measured as dark “bands” of DNA digestion (Rosenthal et al., (1977) Anal. Biochem. 80, 76-90) and quantified using scanned images using NIH Image. Photographed RDA results were scanned 600 dpi Tiff images, and activity was measured as pixel area times density of traced zones of clearing (n=3 for each zone). Student's T-test was used to compare paired results. Nuclease activity ratios were obtained by comparing intra-plate results.

Another test concerns HeLa cells. The test is described as follows: BT assay: liposomal N1-eGFP transfection of HeLa cells in DNASE-conditioned media, GFP immunoblot. The format is cell-based. The settings on record: for GFP transfection in ten-fold diluted conditioned media: ten-fold (five and ten fold) dilution of conditioned media; for BT activity / GFP expression or transfection efficiency in cells exposed to undiluted conditioned media: FuGENE-6, anti-GFP immunoblot. As for the experimental part: In the main assay, an eukaryotic marker such as green fluorescent protein (GFP) expression plasmid complexed with a lipid reagent is transfected into HeLa cells incubated in control media, D1L3-conditioned media, or D1-conditioned media (FIG. 4). The assay is not limited to the use of GFP as a marker, but could use any of many expressed biomarkers encoded by nucleotides that can be assayed either immunochemistry, fluorescent detection, or enzymatic detectection, and these include but are not circumscribed to luciferase, chloramphenicol acetyl-transferase, antibiotic or chemical resistance genes, Beta-galactosidase, FLAG-, myc-hemaglutinnin-, or other epitope tagged molecules, as well as other markers of gene or nucleotide transduction. The endpoint of the assay is the detection of a synthesized protein, but could easily have been the detection of a transcribed gene product, since the assay ultimately measures the ability of D1L3 added the media/milieu overlaying the cells to block the ultimate association of an expressible plasmid with the transcriptional machinery.
as §1
To test for the ability of the nucleases to block transfection, the media in individual wells of naive HeLa cells were replaced with conditioned media, and cells transfected with […] of N1-eGFP plasmid (Clontech) using various transfection reagents (FIG. 11) and their respective protocols. GFP expression by immunoblot directly correlated with transfection efficiency in present experiments. Thus, transfection efficiency was compared by densitometric analysis of GFP immunoblots.
GFP expression was also examined by fluorescent microscopy using a FITC filter. For microscopy, cells were fixed for 5 minutes in 4% paraformaldehyde dissolved into 1% PBS.
Antibody Reagents and Immunoblotting. After 24-36 hours, cells transfected with N1-eGFP were lysed in SDS-buffer and immunoblotted for expression with anti-GFP at 1:5000 dilution (Clontech). To confirm nearly equal protein loading per lane, anti-β-actin monoclonal antibody at 1:7,000 dilution (Sigma) were prepared. For immunoblots, […] protein was eletrophoretically separated by 12% SDS-PAGE gel, followed by electrotransfer to Immobilon-P membranes (Millipore) for expression studies. Immunoblotting was performed using ECL detection (Amersham).
Transfection efficiency was compared, wherever possible, by pixel densitometry of the scanned images using Scion Image 4.02 software.
A general note: A western blot detects proteins with antibodies after separation by electrophoresis.

For another test, the system named is Ad5.CMV-GFP. Put plainly: Adenoviral gene transduction of HeLa cells in conditioned media, GFP immunoblot. The format is cell-based, adenovirus serotype 5. Conditions: lysed at 72 hours. As for the experimental part:
FIG. 30. D3-media confers an in vitro barrier to adenoviral gene transduction (BT). This figure provides anti-GFP immunoblots at 1:5000 (Clontech) of Ad.V.GFP infected (MO 100:1) of 100,000 HeLa cells. Infection of HeLa cells with Ad5.CMV-GFP (a 1st generation (DE1/DE3) adenovirus serotype 5 expressing GFP under the control of CMV-IE promoter (Qbiogene)) was performed in the presence of D1, D3, D1+D3CT, or control conditioned media. Infected cells were lysed at 72 hours and tested for GFP expression (n=3 expts). […] Thus DNASE1L3 or DNASE enzymes linked to the D3CT diminish adenoviral gene transfer. […] Actin levels were generally equivalent in infected cells.

For another test, the system named is liposomal-bound plasmid. The test is described as follows: Cell-free nuclease activity assay on free or FuGene-bound plasmid. The format is biochemical. The settings on record: FuGene-bound plasmid, 37° C., 1 hour. The protocol:
FIG. 16. […] Representative experiment (n=3) of exposure of […] free (−) or liposomal-bound (+FuGene) plasmid to control media with 10% fetal calf serum (lanes 1-2), D1 (lanes 3-4), D1L3 (lanes 5-6), D3DCT (lanes 7-8), and N196K-D3 (lanes 9-10).
Cell-Free Nuclease Activity Assay. Free plasmid DNA or plasmid complexed with lipofection reagent was incubated with conditioned at 37° C. for 1 hour. The incubation was terminated with […] EDTA, and DNA extracted using Promega Wizard DNA Purification System, eluted in […] water, and electrophoresed on a 1% agarose gel.

“Also recorded” adds a separate entry of the source.

On to `[Zn+2]` [zinc], for which the “effect on D1L3 DNASE activity” value with D1L3 is “block D1L3 DNASE activity”.
`O=C(O)CN(CCN(CC(=O)O)CC(=O)O)CC(=O)O` [EDTA]: the “effect on D1L3 DNASE activity” value in the test on D1L3 was “block D1L3 DNASE activity”.

B1: D1L3: Deoxyribonuclease 1-like 3; murine wild-type (C57BL, 89T) enzyme supplied as media conditioned by transfected HeLa cells (protein)
chain: LRLCSFNVRSFGASKKENHEAMDIIVKIIKRCDLILLMEIKDSSNNICPMLMEKLNGNSRRSTTYNYVISSRLGRNTYKEQYAFVYKEKLVSVKTKYHYHDYQDGDTDVFSREPFVVWFHSPFTAVKDFVIVPLHTTPETSVKEIDELVDVYTDVRSQWKTENFIFMGDFNAGCSYVPKKAWQNIRLRTDPKFVWLIGDQEDTTVKKSTSCAYDRIVLCGQEIVNSVVPRSSGVFDFQKAYDLSEEEALDVSDHFPVEFKLQSSRAFTNNRKSVSLKKRKKGNRS
For B1, the “mean RDA activity of conditioned media” value in the test with free DNA came out at 12.0 Units. Further, the “GFP fluorescence by fluorescent microscopy” value in the test with HeLa cells (24 hours) is recorded as “absence of GFP fluorescence”. The “BT effect of diluted conditioned media” value in the test with HeLa cells (diluted 100 fold with control media or 10-fold with N196K conditioned media) is “complete BT effect”. Also, the “GFP transduction after pre-incubation in conditioned media” value in the test with HeLa cells (naive cells incubated six hours, rinsed twice with PBS, transfected in control media) is “blocked”. Further, the “GFP transfection in ten-fold diluted conditioned media” value is “No GFP expression is clearly detectable” in the test with HeLa cells, “nearly completely blocks GFP transduction; also recorded: no GFP transfection efficiency” with HeLa cells (listed as 89T) and “No GFP expression is clearly detectable” with HeLa cells (listed as D3). Further, the results for the “BT activity / GFP expression or transfection efficiency in cells exposed to undiluted conditioned media” value with HeLa cells, in the test with HeLa cells (listed as 89T) and with HeLa cells (listed as D3) were “No GFP expression; also recorded: effectively blocks transfection efficiency”, “saturated BT activity” and “prevents GFP expression; also recorded: abolished”, respectively. The “GFP expression after Ad5.CMV-GFP infection / barrier to infection” value is reported as “afford a barrier to infection” in the test on Ad5.CMV-GFP and “prevents GFP expression” with Ad5.CMV-GFP (listed as D3). For the same molecule, the entries for the “state of liposome-bound plasmid after exposure to conditioned media” value in the test with liposomal-bound plasmid and in the test on liposomal-bound plasmid (listed as D1L3-CM) were “mostly supercoiled plasmid is protected” and “does not completely digest liposomal-bound DNA”, respectively.
